Binding result and Kd data for 5 molecules are collected here from patent US20210228731A1 (Novartis, published 2021).

For test [1], the target named is T1, Rat cKIT D1-5, C-terminal mFc (rat).
T1 construct: also called rat cKIT-mFc
T1 chain: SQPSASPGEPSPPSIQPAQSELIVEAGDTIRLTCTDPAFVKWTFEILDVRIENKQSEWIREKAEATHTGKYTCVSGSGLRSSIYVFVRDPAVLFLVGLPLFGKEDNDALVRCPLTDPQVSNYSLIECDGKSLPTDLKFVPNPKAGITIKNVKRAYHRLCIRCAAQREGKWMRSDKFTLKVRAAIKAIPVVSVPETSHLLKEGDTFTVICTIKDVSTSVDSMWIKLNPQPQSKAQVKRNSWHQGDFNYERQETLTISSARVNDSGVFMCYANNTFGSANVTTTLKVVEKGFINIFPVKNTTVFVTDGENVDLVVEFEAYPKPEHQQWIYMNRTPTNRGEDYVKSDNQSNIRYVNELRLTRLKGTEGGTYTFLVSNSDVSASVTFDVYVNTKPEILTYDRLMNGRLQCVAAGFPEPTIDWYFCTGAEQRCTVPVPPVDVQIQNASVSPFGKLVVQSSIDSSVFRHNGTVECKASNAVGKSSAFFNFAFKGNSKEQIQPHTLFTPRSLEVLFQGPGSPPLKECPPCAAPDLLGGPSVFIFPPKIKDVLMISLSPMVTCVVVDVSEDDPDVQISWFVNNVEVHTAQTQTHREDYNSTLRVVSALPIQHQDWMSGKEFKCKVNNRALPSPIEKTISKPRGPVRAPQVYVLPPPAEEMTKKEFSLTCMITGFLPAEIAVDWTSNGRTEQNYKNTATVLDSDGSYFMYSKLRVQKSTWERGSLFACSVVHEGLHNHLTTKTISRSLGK
Kind of test: reactivity to rat cKIT (method not given; Example 4 describes SPR).

Test [2] addresses T2, Human cKIT D1-5 (extracellular domain) (human, UniProt P10721 26-524).
T2 construct: also called human cKIT ECD; full-length cKIT ECD
Kind of test: SET per the column head (Example 4 describes SPR, Biacore: antibody captured by anti-human Fc, cKIT ECD in solution). For orientation: Surface plasmon resonance follows binding to a sensor surface in real time, without labels.

Test [3] deals with T3, Cynomolgus monkey cKIT D1-5 (cynomolgus monkey, UniProt P10721 26-524 (human entry)).
T3 construct: also called cyno cKIT ECD
T3 chain: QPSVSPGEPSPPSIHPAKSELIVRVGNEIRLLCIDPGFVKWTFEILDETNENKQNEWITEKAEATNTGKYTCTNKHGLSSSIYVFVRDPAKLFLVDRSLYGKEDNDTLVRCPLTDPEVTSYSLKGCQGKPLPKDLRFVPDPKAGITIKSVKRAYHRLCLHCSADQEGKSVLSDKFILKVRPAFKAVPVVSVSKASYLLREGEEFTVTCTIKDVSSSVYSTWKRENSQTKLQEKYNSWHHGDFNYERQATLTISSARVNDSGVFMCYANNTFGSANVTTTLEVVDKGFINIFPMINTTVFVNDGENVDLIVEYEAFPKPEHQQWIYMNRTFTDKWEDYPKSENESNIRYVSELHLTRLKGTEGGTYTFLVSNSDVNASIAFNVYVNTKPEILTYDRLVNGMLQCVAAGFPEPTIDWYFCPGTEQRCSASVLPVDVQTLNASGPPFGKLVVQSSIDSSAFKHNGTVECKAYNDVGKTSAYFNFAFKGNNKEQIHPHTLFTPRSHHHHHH
The description is as above.

Test [4] has as its target T4, Mouse cKIT ECD, C-terminal 6x His (Sino Biological Inc, catalog number 50530-M08H) (mouse, UniProt P05532 25-527).
T4 construct: extracellular domain
T4 sequence: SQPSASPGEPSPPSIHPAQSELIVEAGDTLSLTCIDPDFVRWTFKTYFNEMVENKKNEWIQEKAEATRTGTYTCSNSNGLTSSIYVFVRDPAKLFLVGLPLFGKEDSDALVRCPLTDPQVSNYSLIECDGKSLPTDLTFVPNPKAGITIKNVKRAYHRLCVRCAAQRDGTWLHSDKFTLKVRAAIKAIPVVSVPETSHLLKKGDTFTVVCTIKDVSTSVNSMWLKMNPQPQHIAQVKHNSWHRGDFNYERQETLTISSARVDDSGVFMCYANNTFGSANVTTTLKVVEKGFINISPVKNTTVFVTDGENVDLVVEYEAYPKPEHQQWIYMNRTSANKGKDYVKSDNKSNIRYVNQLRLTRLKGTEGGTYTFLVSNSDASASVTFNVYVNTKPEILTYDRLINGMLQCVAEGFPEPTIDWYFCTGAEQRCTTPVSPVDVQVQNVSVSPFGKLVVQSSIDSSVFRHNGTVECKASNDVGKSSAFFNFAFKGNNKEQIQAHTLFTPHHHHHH
Kind of test: reactivity to mouse cKIT (method not given; Example 4 describes SPR).

T2 sequence (P10721 other isoform, or with tags, fused parts or gaps): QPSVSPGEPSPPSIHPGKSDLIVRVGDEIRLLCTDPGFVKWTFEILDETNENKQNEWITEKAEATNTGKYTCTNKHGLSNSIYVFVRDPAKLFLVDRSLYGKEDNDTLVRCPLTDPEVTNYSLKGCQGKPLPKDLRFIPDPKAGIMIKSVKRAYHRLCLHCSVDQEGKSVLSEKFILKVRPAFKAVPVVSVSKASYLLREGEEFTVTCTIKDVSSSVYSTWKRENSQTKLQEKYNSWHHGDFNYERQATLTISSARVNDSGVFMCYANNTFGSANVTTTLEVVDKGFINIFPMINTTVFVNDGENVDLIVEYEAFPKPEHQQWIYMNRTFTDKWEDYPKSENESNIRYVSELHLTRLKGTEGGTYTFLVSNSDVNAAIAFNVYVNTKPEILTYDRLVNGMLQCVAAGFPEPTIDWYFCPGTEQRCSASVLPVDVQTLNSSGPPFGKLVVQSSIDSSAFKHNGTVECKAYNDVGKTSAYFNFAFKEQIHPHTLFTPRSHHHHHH

B1: Anti-cKIT Ab4 (antibody, human IgG1, lambda, V domains shown)
VH: QVQLQQSGPGLVKPSQTLSLTCAISGDSVSTNSAAWNWIRQSPSRGLEWLGRIYYRSQWLNDYAVSVKSRITINPDTSKNQFSLQLNSVTPEDTAVYYCARQLTYPYTVYHKALDVWGQGTLVTVSS
VL: DIELTQPPSVSVSPGQTASITCSGDNLGDQYVSWYQQKPGQAPVLVIYDDTDRPSGIPERFSGSNSGNTATLTISGTQAEDEADYYCQSTDSKSVVFGGGTKLTVLG
notes: Full-length human IgG1, lambda light chain
In general, Kd refers to a measure of binding affinity in units of concentration. B1: in test [1], the binding result is “binds”. In addition, the Kd in test [2] turned out to be 2.4 nM; in test [3], 0.14 nM.

B2: Anti-cKIT Ab5 (antibody, human IgG1, lambda, V domains shown)
VH: QVQLVQSGAEVKKPGESLKISCKGSGYSFTNYWIAWVRQMPGKGLEWMGIIYPSNSYTLYSPSFQGQVTISADKSISTAYLQWSSLKASDTAMYYCARVPPGGSISYPAFDHWGQGTLVTVSS
VL: DIELTQPPSVSVSPGQTASITCSGDNIGSIYASWYQQKPGQAPVLVIYRDNKRPSGIPERFSGSNSGNTATLTISGTQAEDEADYYCSVTDMEQHSVFGGGTKLTVLG
notes: as for B1
Consider B2, for which, in test [1], the binding result is given as “binds”. The Kd amounted to 0.11 nM in test [2] and 0.18 nM in test [3].

B3: Anti-cKIT Ab1 (antibody, human IgG1, kappa, V domains shown)
VH: QVQLVQSGAEVKKPGSSVKVSCKASGGTFSSYAISWVRQAPGQGLEWMGVIFPAEGAPGYAQKFQGRVTITADESTSTAYMELSSLRSEDTAVYYCARGGYISDFDVWGQGTLVTVSS
VL: DIQMTQSPSSLSASVGDRVTITCRASQSISNYLAWYQQKPGKAPKLLIYDASSLQSGVPSRFSGSGSGTDFTLTISSLQPEDFATYYCQQYYYESITFGQGTKVEIKR
notes: Full-length human IgG1, kappa light chain
As to B3, the binding result in test [1] and in test [4] was “no binding” throughout. For the same molecule, the Kd is 0.094 nM in test [2] and 0.17 nM in test [3].

B4: Anti-cKIT Ab2 (antibody, human IgG1, kappa, V domains shown)
VH: QVQLVQSGAEVKKPGSSVKVSCKASGGTFSSHALSWVRQAPGQGLEWMGGIIPSFGTADYAQKFQGRVTITADESTSTAYMELSSLRSEDTAVYYCARGLYDFDYWGQGTLVTVSS
VL: DIQMTQSPSSLSASVGDRVTITCRASQDISQDLAWYQQKPGKAPKLLIYDASSLQSGVPSRFSGSGSGTDFTLTISSLQPEDFAVYYCQQYYYLPSTFGQGTKVEIKR
notes: as for B3
B4: the binding result in test [1] and in test [4] was “no binding” in each case. In addition, the Kd is 0.007 nM in test [2] and 0.01 nM in test [3].

B5: Anti-cKIT Ab3 (antibody, human IgG1, kappa, V domains shown)
VH: QVQLVQSGAEVKKPGSSVKVSCKASGGTFSSYAISWVRQAPGQGLEWMGTIGPFEGQPRYAQKFQGRVTITADESTSTAYMELSSLRSEDTAVYYCARGGYISDFDVWGQGTLVTVSS
VL: DIQMTQSPSSLSASVGDRVTITCRASQSISNYLAWYQQKPGKAPKLLIYDASSLQSGVPSRFSGSGSGTDFTLTISSLQPEDFATYYCQQYYYESITFGQGTKVEIKR
notes: as for B3
Consider B5, for which the binding result in test [1] and in test [4] was “no binding” each time. The Kd in test [3] stood at 0.052 nM.
